# Test results published in patent US20260132208A1 (DOMAIN THERAPEUTICS, published 2026).
# Values joined by “and” are separate entries in the source; they are usually repeats but may differ in a detail not shown here. Identical values can stand only once.
# Assays:
# [1] = molecular target: T1, human CCR8 with a SNAP-tag at the N-terminus (human, UniProt P51685 1-355, SNAP-tag labelled covalently with Lumi4-Terbium); test: HTRF Tag-lite, inhibition of hCCL1-AF647 binding to SNAP-hCCR8 on HEK-293 cells
# T1 construct: also called hCCR8 SNAP-tag; CCR8 SNAP-tag
# human CCR8 [2] = molecular target: T2, human CCR8 (human, UniProt P51685 1-355); test: flow cytometry, HUT78 cells (endogenous CCR8)
# T2 construct: also called hCCR8; CC chemokine receptor 8
# Protocol: (§1) In human activated T cells model, prior to mAb incubation, cells were first incubated with 200 nM of hCCL1 (R&D Systems, Minneapolis, MN, USA) or buffer PBS (Invitrogen by Thermofisher Scientific, Illkirch-Graffenstaden, France) supplemented by 2% Fetal Bovine Serum (Invitrogen by Thermofisher Scientific, Illkirch-Graffenstaden, France) and 2 mM EDTA (Invitrogen by Thermofisher Scientific, Illkirch-Graffenstaden, France) during 1 hour at 4° C. To determine EC50 value, 8 concentrations of anti-CCR8 mAb were tested. Unbound antibodies were washed away with PBS (Invitrogen by Thermofisher Scientific, Illkirch-Graffenstaden, France) supplemented by 2% Fetal Bovine Serum (Invitrogen by Thermofisher Scientific, Illkirch-Graffenstaden, France) and 2 mM EDTA (Invitrogen by Thermofisher Scientific, Illkirch-Graffenstaden, France). Subsequently, cells are centrifuged (5 min at 400 g) and bound antibody is detected with F(ab′)2-Goat anti-Mouse IgG (H+L) Cross-Adsorbed Secondary Antibody, Alexa Fluor 488 (dilution 1/500) (Invitrogen by Thermofisher Scientific, Illkirch-Graffenstaden, France) or with F(ab′)₂-Goat anti-Human IgG Fc Secondary Antibody, PE (Invitrogen by Thermofisher Scientific, Illkirch-Graffenstaden, France) (dilution 1/1000) at 4° C. for 30 min. Detection reagent is washed away and cells are centrifuged (5 min at 400 g) and resuspended in 30 μL PBS. Bound detection antibody is quantified on a MacsQuant16 (Miltenyi, Gladbach, Germany) (B1 or B2 channel, 5000 events per acquisition). During the experiment, the respective isotype mAb controls (mouse IgG1, mouse IgG2a, mouse IgG2b, mouse IgG3 or human IgG1) (Biolegend, Amsterdam, The Netherlands) are included to exclude any unspecific binding events. EC50 values were determined via nonlinear fit “log (agonist) vs.response—Variable slope (four parameters)” function of Graphpad prism. EC50 values were not constantly determined in the same experiments.
# Anti-CCR8 mAb cellular reactivity was also evaluated on native human CCR8 from HUT78 cell line by flow cytometry. In Table 4.3, Mean Fluorescence Intensity (Fold change to isotype control), the percentage of labelled cells and EC50 in nM of some anti-CCR8 antibodies are presented.
# human CCR8 [3] = molecular target: T2, human CCR8; test: cell-based or functional assay
# human CCR8 [4] = molecular target: T2, human CCR8; test: flow cytometry, human activated T cells (endogenous CCR8)
# Protocol: as §1
# Binding characteristics of anti-CCR8 mAb cellular reactivity was further investigated by testing their binding to activated T cells.
# human CCR8 [5] = molecular target: T2, human CCR8; test: cell-based or functional assay; remark: listed apart in the source
# human CCR8 [6] = molecular target: T2, human CCR8; test: flow cytometry, human activated T cells pre-saturated with 200 nM hCCL1
# Protocol: Unbound antibodies were washed away with PBS (Invitrogen by Thermofisher Scientific, Illkirch-Graffenstaden, France) supplemented by 2% Fetal Bovine Serum (Invitrogen by Thermofisher Scientific, Illkirch-Graffenstaden, France) and 2 mM EDTA (Invitrogen by Thermofisher Scientific, Illkirch-Graffenstaden, France). Subsequently, cells are centrifuged (5 min at 400 g) and bound antibody is detected with F(ab′)2-Goat anti-Mouse IgG (H+L) Cross-Adsorbed Secondary Antibody, Alexa Fluor 488 (dilution 1/500) (Invitrogen by Thermofisher Scientific, Illkirch-Graffenstaden, France) or with F(ab′)₂-Goat anti-Human IgG Fc Secondary Antibody, PE (Invitrogen by Thermofisher Scientific, Illkirch-Graffenstaden, France) (dilution 1/1000) at 4° C. for 30 min. Detection reagent is washed away and cells are centrifuged (5 min at 400 g) and resuspended in 30 μL PBS. Bound detection antibody is quantified on a MacsQuant16 (Miltenyi, Gladbach, Germany) (B1 or B2 channel, 5000 events per acquisition). During the experiment, the respective isotype mAb controls (mouse IgG1, mouse IgG2a, mouse IgG2b, mouse IgG3 or human IgG1) (Biolegend, Amsterdam, The Netherlands) are included to exclude any unspecific binding events. EC50 values were determined via nonlinear fit “log (agonist) vs.response—Variable slope (four parameters)” function of Graphpad prism. EC50 values were not constantly determined in the same experiments.
# Binding characteristics of anti-CCR8 mAb cellular reactivity was further investigated by testing their binding to activated T cells. […] For some anti-CCR8 antibodies, their binding on hCCR8 from human activated T cells was tested after a pre-saturation with 200 nM of hCCL1.
IC50 [1] [µg/mL],Ki [1],% of labelled cells (human CCR8 [2]) [%],"IC50 of CCL1-induced hCCR8 Gi2 signaling (BRET, HEK-293) (human CCR8 [3])",% of labelled cells (human CCR8 [4]) [%],"extrapolated top plateau of hCCL1 curve with 5 µg/mL mAb, protocol #3 (human CCR8 [5])",% of labelled cells (human CCR8 [6]) [%],Binder
0.09,0.05 µg/mL,23,0.029 µg/mL and 0.194 nM,79,517000 % of hCCL1 (100 nM),64,"anti-CCR8 mAb 1-20 (antibody, human IgG1, kappa, Humanized mAb, human IgG1 / kappa) heavy: not shown light: DIVMTQAAPSLSVTPGESASISCTSSKSLLHSNGNTYLYWFLQKPGQSPQLLIYRMSNLASGVPDRFSGSGSGTAFTLKISRVEAEDVGVYYCMQHREYPFTFGSGTKLEIKRTVAAPSVFIFPPSDEQLKSGTASVVCLLNNFYPREAKVQWKVDNALQSGNSQESVTEQDSKDSTYSLSSTLTLSKADYEKHKVYACEVTHQGLSSPVTKSFNRGEC"
0.15,0.08 µg/mL and 0.5 nM,97,0.068 µg/mL and 0.452 nM,92,76400 % of hCCL1 (100 nM),92,"anti-CCR8 mAb 1-22 (antibody, human IgG1, kappa, V domains shown, Humanized mAb, human IgG1 / kappa) VH: EVQLLESGGGLVQPGGSLRLSCAASGFTFNAYAMNWVRQAPGKGLEWVARIRSKSNDYATYYGDSVKGRFTISRDNSKNTLYLQMNSLRAEDTAVYYCVRGREAYYRYDGGYYAMDVWGQGTTVTVSS VL: DIVMTQSPLSLPVTPGEPASISCRSSKSLLHSNGNTYLYWFLQKPGQSPQLLIYRVSNLASGVPDRFSGSGSGTDFTLKISRVEAEDVGVYYCMQHREYPFTFGQGTKLEIKR"
0.02,0.01 µg/mL and 0.07 nM,93,0.02 µg/mL and 0.134 nM,63,–,54,"anti-CCR8 mAb 1-25 (antibody, human IgG1, kappa, V domains shown, Humanized mAb, human IgG1 / kappa) VH: QVQLVESGGGVVQPGRSLRLSCAASGFTFSNYRMHWVRQAPGKGLEWIAVIKVKSDNYGANYADSVKGRFTISRDNSKNTLYLQMNSLRAEDTAVYYCSSPTYPGSSGFAYWGQGTLVTVSS VL: DIQMTQSPSSLSASVGDRVTITCRASQDISNYLNWYQQKPDGTVKLLIYYTSRLHTGVPSRFSGSGSGTDYTLTISNLQQEDIATYFCQQGNKFPPTFGGGTKVEINR"
